Source: the supplement of paper PMC12042874
± gives the uncertainty stated by the source.

Assay: amyloid nucleation score (Sup35N fusion, yeast selection) (log enrichment); library NNK2; higher = more nucleation; inactive = no reads after selection
Summary of the method: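 Yeast lacking psi expressed peptides of 20 random codons fused to Sup35N, received 100 μM copper sulfate for 24 hours, and were then grown for 7 days at 30°C on medium lacking adenine and uracil. Illumina sequencing of input and output plasmid inserts provided the reads. Nucleation scores are DiMSum log enrichments of output over input, centred on the mode of non-aggregating sequences. Any sequence with under 100 input reads was excluded.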

Row | Substance | amyloid nucleation score
1 | NYCVLSFDISGYAFYKEGLG | -0.492 ± 1.1
2 | FIDLYLRFWVCTSFQCAHSI | inactive
3 | TSVIIIGYCI | 5.997 ± 0.034
4 | LLWLPR | 0.376 ± 0.31
5 | LAHETLCLDTYRDPW | -1.54 ± 1
6 | DLHWA | 0.595 ± 0.28
7 | SITMFQCQRVCASLQYVTGT | 6.968 ± 0.063
8 | INVFGGHLMSYMKSISRVVC | -1.13 ± 0.64
9 | CNTLLTFNYNAYVIEVM | 0.839 ± 0.17
10 | RQFLSPNYATECGFQLRVGI | inactive
11 | VCYGVSFPIGWGYQYHNRNV | inactive
12 | NELEHVFLMRYKC | inactive
13 | FIADYYGGKTHGNLMSALTC | 1.06 ± 0.53
14 | SLGIVNSHIFAMWTFSSMGA | 3.74 ± 0.065
15 | LYPCNLELVQQHFLVMTNLG | -0.034 ± 0.23
16 | NSREALVKVGNECP | inactive
17 | MSTGRCILRPFLGSPRSSVV | inactive
18 | RFDINHCIKRCRFGRLVAEI | 3.12 ± 0.1
19 | FNDLMYVNYLLCMVH | 4.04 ± 0.095
20 | NPRFLDRCYLYYPGSASRVA | inactive
21 | LFKCVSTGHYLLTFRVVVYG | -0.456 ± 0.39
22 | GNMISERSKSSVHN | -1.52 ± 1.1
23 | DYLKLLAYNVLFR | inactive
24 | GNCPLMPMKFRNRMSHSAFS | 0.517 ± 0.4
25 | KHSEDSYCFMSGLSGVICCK | 0.932 ± 0.19

Row | Substance | amyloid nucleation score
26 | WPLRL | 0.348 ± 0.31
27 | VLVMVRTFNGNILPFLAPDL | 5.714 ± 0.024
28 | PYNLVGLGLFSPAGF | -0.849 ± 0.61
29 | QMQPTGLRQNLSSPWPFVGE | 0.993 ± 0.29
30 | RFSVDRSSRELICMLGQFDN | 0.356 ± 0.38
31 | AIPVYFVLLMSITPLQLVVM | 1.38 ± 0.15
32 | LFRCELSLGRHMGFLDWEWG | 0.201 ± 0.38
33 | AYHAMVCYINLFSDVYLHGY | 4.98 ± 0.089
34 | CVYEIPKM | 3.09 ± 0.048
35 | SLRWDYLHLVWRHAEGGYGK | 6.678 ± 0.038
36 | ISFWGFYRFRYDMCRRVSDR | -1.34 ± 0.78
37 | PYATNSRRNRNVYLRPHCQI | 1.77 ± 0.12
38 | WLHTTFSRSICSISIHRALE | -0.07 ± 0.48
39 | CKWWGRGEGDIVVLWLSEKL | 0.942 ± 0.66
40 | FWALCVASVICYFVRMLSLA | 0.169 ± 0.3
41 | VLFSDA | -0.08 ± 1
42 | NLDVSYYVIYIKPGRYPV | 6.09 ± 0.078
43 | CTSHWAYEDEDFFIDRLYFT | -0.796 ± 0.3
44 | YSVTLGGWIREQSLQLSTSS | 0.768 ± 0.46
45 | SSSIRVRTDEHMEVAGKRLS | 0.217 ± 0.27
46 | RHCDLQSRLPSTWYLVRYPC | 0.885 ± 0.74
47 | FSIISGCFRNVVDLLRMLNL | -1.2 ± 1.1
48 | ILVMKFNSWLADEDRVRSVI | 1.21 ± 0.27
49 | CLINMTIYGERWRCVNDVPN | 3.54 ± 0.052
50 | LHFQYERSWNARSTLM | 4.08 ± 0.076

Row | Substance | amyloid nucleation score
51 | RESYMLSYGKILNACQCIVG | 9.12 ± 0.079
52 | WQHGVRSGQQECPRLEGNRV | 0.379 ± 0.23
53 | VRSWTGPSEVQNCKSEFSGA | 0.731 ± 0.28
54 | FRYERTGRAMSTASVVTTTV | 1.04 ± 0.68
55 | MYYCLGILCGVSTRRGEMSC | 1.17 ± 0.41
56 | DFDVEA | -0.176 ± 1.1
57 | RLSVA | 1.24 ± 0.26
58 | CSDRSICFANSYFEF | -0.101 ± 0.63
59 | TYDSYRVIYISY | -0.372 ± 0.61
60 | LLFCKPDAHFVLCSFYPLML | inactive
61 | MIFSEFGAEVIVGWFVVSVG | -0.9 ± 0.76
62 | TSYIYLMISASPQFLS | 4.04 ± 0.11
63 | FMAWTDSLIYKHAICAATL | -0.031 ± 0.39
64 | ARLLWMRP | inactive
65 | SVNNHGRLYVWLERLSYTTF | 2.24 ± 0.14
66 | YGPLNFDTSP | 0.74 ± 0.16
67 | AVVDH | 0.336 ± 0.41
68 | LGPLVYFLFVNIPNQGFFLC | 1.56 ± 0.16
69 | LMVTKLSCSCFCLFSVPRSQ | 0.783 ± 0.74
70 | TLVLFGTLISMLQL | 6.24 ± 0.073
71 | RYKKAHSSALRCK | 0.988 ± 0.74
72 | LSYRHNGPHPGGYNCTGSRV | inactive
73 | VSNGVVMDKCIRKICTVLTM | -0.667 ± 0.45
74 | LRFSWDKISFVVRWLVVGLT | 0.138 ± 0.19
75 | ARFILFVALFWKFLY | 0.431 ± 0.46

Row | Substance | amyloid nucleation score
76 | YGGKSHPLIWFACIWSYIVN | 3.04 ± 0.07
77 | DSGNDLCDNYPVCWVKFCYC | 5.2 ± 0.063
78 | SRLYGLDCRILFVNFYTKLP | inactive
79 | FPARFHACLDYKWFGTGRPS | 2.41 ± 0.12
80 | LWVGQLTTY | 0.199 ± 0.45
81 | IHRGFILADTLHHYCSGLLI | -0.199 ± 0.65
82 | INGWEPSIIDVIYNAHQIGP | 0.107 ± 0.79
83 | FLCVTISLDNSVACLPLRYS | 0.532 ± 0.66
84 | FTGIRRGLWLS | 0.405 ± 0.56
85 | LILLFLTAQRLCLVSDEESE | -0.409 ± 0.41
86 | ISIVPYYNLGIGGRVTGSEA | 0.012 ± 0.3
87 | SATEWIISVGGRAWRF | 2.65 ± 0.12
88 | SGPRLTYSTLSKICALVQAE | 0.457 ± 0.34
89 | SYTSAYSRYIWRHQIIMGKK | -1.11 ± 0.42
90 | NFCFVWLSREYHRLALCSGV | inactive
91 | YYSLLLGSTKSVAN | -0.038 ± 0.33
92 | STASLHGVMLGMRLKNPLGV | -0.97 ± 0.63
93 | MTQRHFLVDTGRKAR | 1.22 ± 0.48
94 | WYGFNNDTEWKNTKAFW | 1.83 ± 0.084
95 | KNSCSMYVMMCGSQVLGLVS | 7.75 ± 0.084
96 | FAHERHTIYRQVSIMMWRSM | 0.426 ± 0.25
97 | FAFYRSFCWRVTWFSWVGGS | inactive
98 | FSQFMKLNSRFIRRYMWCVL | -0.891 ± 0.55
99 | CGNLSCPVGVCGIFRRPSTG | inactive
100 | IQINLLNSGYSFRLRASKFS | 2.89 ± 0.075

Row | Substance | amyloid nucleation score
101 | VAFIYCIV | 4.99 ± 0.068
102 | CNVHWGRL | 0.089 ± 0.8
103 | KSRFIFRVSVLDPRASVAWL | inactive
104 | LIKVVVMS | 1.04 ± 0.42
105 | MYEAAGSDREVLRKYEHSSV | -0.22 ± 0.4
106 | SFFQESHKRIDRVYKYGMGS | -0.96 ± 0.28
107 | LIMYGTKLSRLVMLLYYWTW | 0.031 ± 0.34
108 | GFVYYSVMVFLMLAFPYLRH | -1.59 ± 0.64
109 | LPEIHLVTLC | -0.802 ± 0.49
110 | LLYCYSLFVVSFDYTFHQRF | 6.15 ± 0.062
111 | RAPFLKMCL | -1.22 ± 0.75
112 | FFLIRSMGSSSAYRLRVCWR | -0.37 ± 0.76
113 | FYGSEVIMSTDVQGNGEYGA | -0.791 ± 0.62
114 | LFNVMLCMP | 4.17 ± 0.048
115 | VGILSRWLRGRFTVTRWLWC | -0.945 ± 1.1
116 | LVNMGSGPALYLYPLSIMVK | -1.42 ± 1.1
117 | TCLRSIVVVFLALGLDSFFW | -0.177 ± 0.3
118 | YHGVLSFLII | 1.29 ± 0.36
119 | SSSWLCYTSFWYVNHSRRSL | 8.051 ± 0.043
120 | LVRTLAYCASKNNFVRL | -0.038 ± 0.63
121 | HSYITG | 0.018 ± 0.19
122 | VDRKWRKT | -0.373 ± 1
123 | YDNTEASGLSWRTLLQGAVW | 0.562 ± 0.45
124 | LNAYGGRCSL | 0.317 ± 0.5
125 | RCCFAARMYYGHTLASAVIR | 1.38 ± 0.3
